Measurements taken from the RNAGym collection of RNA variant scans (doi:10.7554/elife.90254).

B1: LINE1-mini (parent)
chain: GGCAGAGCUCAACACAGCGUGGCAAAGUGGCUGUGGCUAGACUGCC

Variants of: B1
Assay: self-cleavage, relative activity (ratio to wild type); higher = more cleavage; in vitro, sequencing; the parent is a self-cleaving ribozyme

| Variant | self-cleavage |
| --- | --- |
| G36C G40U | 0.18 |
| G36C G40A | 0.09 |
| G35U A41U | 0.14 |
| G35U A41C | 0.08 |
| G35U A41G | 0.08 |
| U34C A39U | 0.07 |
| U34C A39C | 0.09 |
| U34C A39G | 0.04 |
| G36C U43C | 0.04 |
| G36C U43G | 0 |
| G36C U43A | 0.08 |
| G33U U38G | 0.04 |
| G33U U38C | 0.08 |
| G33U U38A | 0.08 |
| U34C A41C | 0.05 |
| U34C A41G | 0.07 |
| U34C A41U | 0.06 |
| U34A G35U | 0.06 |
| U34A G35A | 0.07 |
| U34A G35C | 0.13 |
| U34C C46U | 0.12 |
| U34C C46A | 0.16 |
| U34C C46G | 0.1 |
| G36A G40A | 0.29 |

| Variant | self-cleavage |
| --- | --- |
| G36A G40U | 0.47 |
| G36A G40C | 0.27 |
| G35U C37G | 0.05 |
| G35U C37A | 0.23 |
| G35U C37U | 0.06 |
| G36A C42G | 0.07 |
| G36A C42A | 0.16 |
| G36A C42U | 0.15 |
| G36A C37A | 0.11 |
| G36A C37G | 0.05 |
| G36A C37U | 0.31 |
| U34A U38C | 0.2 |
| U34A U38G | 0.06 |
| U34A U38A | 0.17 |
| U34C C42U | 0.12 |
| U34C C42G | 0.05 |
| U34C C42A | 0.09 |
| G35C U43G | 0.09 |
| G35C U43C | 0.12 |
| G35C U43A | 0.11 |
| G35U C45G | 0.07 |
| G35U C45A | 0.12 |
| G35U C45U | 0.12 |
| G36U A41G | 0.15 |

| Variant | self-cleavage |
| --- | --- |
| G36U A41C | 0.05 |
| G36U A41U | 0.1 |
| G35U U43A | 0.15 |
| G35U U43G | 0.07 |
| G35U U43C | 0.05 |
| G35U G40A | 0.09 |
| G35U G40C | 0.06 |
| G35U G40U | 0.12 |
| G36C A39G | 0.07 |
| G36C A39U | 0.23 |
| G36C A39C | 0.05 |
| G35U G36A | 0.16 |
| G35U G36U | 0.1 |
| G35U G36C | 0.11 |
| G35A G36A | 0.17 |
| G35A G36C | 0.17 |
| G35A G36U | 0.19 |
| U34A A39G | 0.05 |
| U34A A39U | 0.06 |
| U34A A39C | 0.12 |
| U34A C37G | 0.04 |
| U34A C37A | 0.08 |
| U34A C37U | 0.04 |
| G33U C46U | 0.07 |

| Variant | self-cleavage |
| --- | --- |
| G33U C46G | 0.07 |
| G33U C46A | 0.07 |
| G35C | 0.11 |
| G35U | 0.16 |
| G35A | 0.16 |
| U34C G36U | 0.06 |
| U34C G36C | 0.08 |
| U34C G36A | 0.09 |
| G36U C42A | 0.06 |
| G36U C42U | 0.06 |
| G36U C42G | 0.03 |
| U34G C42U | 0.1 |
| U34G C42A | 0.07 |
| U34G C42G | 0.05 |
| U34C G40A | 0.11 |
| U34C G40C | 0.02 |
| U34C G40U | 0.1 |
| U34G C45U | 0.19 |
| U34G C45G | 0.13 |
| U34G C45A | 0.06 |
| G35U U38G | 0.03 |
| G35U U38A | 0.12 |
| G35U U38C | 0.09 |
| G33U C37A | 0.07 |

| Variant | self-cleavage |
| --- | --- |
| G33U C37G | 0.05 |
| G33U C37U | 0.06 |
| G36A A39G | 0.39 |
| G36A A39U | 0.22 |
| G36A A39C | 0.27 |
| G35A A39C | 0.08 |
| G35A A39U | 0.12 |
| G35A A39G | 0.07 |
| G35U G44U | 0.11 |
| G35U G44A | 0.13 |
| G35U G44C | 0.07 |
| G33U G35U | 0.11 |
| G33U G35A | 0.08 |
| G33U G35C | 0.06 |
| G33U C42G | 0.07 |
| G33U C42U | 0.09 |
| G33U C42A | 0.13 |
| G35C A41G | 0.08 |
| G35C A41C | 0.06 |
| G35C A41U | 0.13 |
| U34A G44C | 0.04 |
| U34A G44A | 0.06 |
| U34A G44U | 0.11 |
| G36C C37A | 0.1 |

| Variant | self-cleavage |
| --- | --- |
| G36C C37G | 0.07 |
| G36C C37U | 0.06 |
| G36U | 0.08 |
| G36C | 0.1 |
| G36A | 0.2 |
| U34A U43G | 0.04 |
| U34A U43C | 0.04 |
| U34A U43A | 0.06 |
| U34G G35C | 0.12 |
| U34G G35A | 0.06 |
| U34G G35U | 0.07 |
| G36C U38G | 0.02 |
| G36C U38A | 0.06 |
| G36C U38C | 0.05 |
| G36U C37A | 0.05 |
| G36U C37G | 0.05 |
| G36U C37U | 0.03 |
| G36C C42G | 0.07 |
| G36C C42A | 0.05 |
| G36C C42U | 0.09 |
| U34A G36A | 0.09 |
| U34A G36U | 0.04 |
| U34A G36C | 0.03 |
| G35C C46U | 0.06 |

| Variant | self-cleavage |
| --- | --- |
| G35C C46A | 0.1 |
| G35C C46G | 0.06 |
| G33U U34G | 0.05 |
| G33U U34C | 0.23 |
| G33U U34A | 0.08 |
| G35U C42U | 0.11 |
| G35U C42G | 0.05 |
| G35U C42A | 0.08 |
| G36C C45G | 0.04 |
| G36C C45A | 0.07 |
| G36C C45U | 0.29 |
| G36C A41U | 0.14 |
| G36C A41C | 0.05 |
| G36C A41G | 0.11 |
| G35C C45U | 0.08 |
| G35C C45A | 0.06 |
| G35C C45G | 0.03 |
| U34C C45G | 0.11 |
| U34C C45A | 0.05 |
| U34C C45U | 0.14 |
| U34G G36U | 0.11 |
| U34G G36C | 0.05 |
| U34G G36A | 0.07 |
